Measurements as given in patent US20200399391A1 (Sanofi, published 2020).

How the values were obtained:
[1] = molecular target: T1, FcγRIIIa (CD16a) extracellular domain with V158, C-terminal histag (human, UniProt P08637 17-208); experiment: SPR, against mAb 1
T1 construct: also called FcγRIIIa 158V; FcγRIIIa-histag; not shown: C-terminal histag

[2] = molecular target: T2, FcγRIIIa 158V expressed on cells (human, UniProt P08637 17-254); experiment: flow cytometry on HEK293T cells expressing the receptor
T2 construct: also called HEK293T-FcγRIIIa-158V; FcγRIIIa (CD16a) 158V

[3] = molecular target: T2, FcγRIIIa 158V expressed on cells; experiment: cell-based or functional assay
[4] = molecular target: T2, FcγRIIIa 158V expressed on cells; experiment: flow cytometry on HEK293T cells expressing the receptor, FITC anti-human IgG; mean apparent Kd
[5] = molecular target: T3, FcγRIIa extracellular domain with H131, histag (Biorbyt, batch ORB138408) (human, UniProt P12318 34-217); experiment: AlphaScreen competition (relative IC50): untagged mAb displaces biotinylated anti-CD38 native IgG1 from FcγRIIa-histag
T3 construct: Bought protein; also called FcγRIIa H131; not shown: histag
T3 sequence: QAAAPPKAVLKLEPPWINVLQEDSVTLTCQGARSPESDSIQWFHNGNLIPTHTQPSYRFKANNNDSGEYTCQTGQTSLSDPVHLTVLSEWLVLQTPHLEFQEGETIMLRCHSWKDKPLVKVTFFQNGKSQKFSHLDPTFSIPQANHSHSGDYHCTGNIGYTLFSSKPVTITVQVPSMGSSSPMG

[6] = molecular target: T3, FcγRIIa extracellular domain with H131, …; experiment: AlphaScreen competition, against mAb 1
[7] = molecular target: T1, FcγRIIIa (CD16a) extracellular domain …; experiment: SPR, another experiment
[8] = molecular target: T4, FcγRIIa 131H expressed on HEK cells (human, UniProt P12318 34-317); experiment: flow cytometry on HEK293T cells expressing the receptor, FITC anti-human IgG; mean Kd
T4 sequence: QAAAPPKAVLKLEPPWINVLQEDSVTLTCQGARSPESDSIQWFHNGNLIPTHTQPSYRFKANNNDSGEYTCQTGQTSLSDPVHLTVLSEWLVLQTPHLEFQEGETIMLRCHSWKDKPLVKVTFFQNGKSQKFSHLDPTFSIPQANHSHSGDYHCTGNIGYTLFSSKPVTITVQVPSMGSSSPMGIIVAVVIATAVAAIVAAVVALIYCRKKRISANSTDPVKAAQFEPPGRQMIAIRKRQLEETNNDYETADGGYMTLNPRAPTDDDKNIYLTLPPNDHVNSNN

[9] = molecular target: T1, FcγRIIIa (CD16a) extracellular domain …; experiment: SPR (BIAcore 2000), FcγRIIIa-histag captured on anti-His IgG, mAb 8-256 nM, two-state fit
[10] = molecular target: T2, FcγRIIIa 158V expressed on cells; experiment: cell-based or functional assay; remark: listed apart in the source
[11] = molecular target: T5, FcγRI expressed on HEK cells (UniProt P12314 16-374, limits assumed); experiment: flow cytometry on HEK293T cells expressing the receptor
T5 construct: whole, on cells; also called HEK293T-FcγRI

[12] = molecular target: T6, FcγRIIb expressed on HEK cells (UniProt P31994 43-310, limits assumed); experiment: flow cytometry on HEK293T cells expressing the receptor; the text calls it fold lower affinity
T6 construct: whole, on cells; also called HEK293T-FcγRIIb
T6 sequence (looked up): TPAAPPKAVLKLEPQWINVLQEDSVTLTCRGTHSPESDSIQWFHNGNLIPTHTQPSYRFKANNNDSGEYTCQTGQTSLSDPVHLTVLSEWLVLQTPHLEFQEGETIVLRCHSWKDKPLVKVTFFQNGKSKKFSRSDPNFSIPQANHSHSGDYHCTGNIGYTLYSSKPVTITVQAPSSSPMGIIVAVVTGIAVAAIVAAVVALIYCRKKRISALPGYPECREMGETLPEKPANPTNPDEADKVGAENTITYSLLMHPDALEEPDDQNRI

[13] = molecular target: T4, FcγRIIa 131H expressed on HEK cells; experiment: flow cytometry on HEK293T cells expressing the receptor
[14] = molecular target: T5, FcγRI expressed on HEK cells; experiment: flow cytometry on HEK293T cells expressing the receptor, FITC anti-human IgG; mean Kd
[15] = molecular target: T6, FcγRIIb expressed on HEK cells; experiment: as above
[16] = molecular target: T2, FcγRIIIa 158V expressed on cells; experiment: cell-based or functional assay; remark: listed apart in the source

T2 sequence (P08637 17-254 F176V limits assumed): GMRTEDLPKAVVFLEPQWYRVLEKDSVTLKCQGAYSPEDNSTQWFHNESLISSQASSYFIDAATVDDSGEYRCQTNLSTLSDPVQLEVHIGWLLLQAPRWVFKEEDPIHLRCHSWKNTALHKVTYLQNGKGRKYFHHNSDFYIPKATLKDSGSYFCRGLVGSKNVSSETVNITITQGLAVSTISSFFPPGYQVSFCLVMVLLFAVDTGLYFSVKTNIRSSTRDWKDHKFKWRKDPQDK
T1 sequence (P08637 17-208 F176V): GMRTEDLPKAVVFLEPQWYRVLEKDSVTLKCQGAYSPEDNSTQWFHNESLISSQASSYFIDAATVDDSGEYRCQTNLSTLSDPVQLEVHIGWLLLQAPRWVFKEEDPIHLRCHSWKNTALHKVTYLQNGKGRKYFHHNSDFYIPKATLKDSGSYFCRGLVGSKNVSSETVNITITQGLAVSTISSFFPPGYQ
T5 sequence (P12314 16-374 limits assumed): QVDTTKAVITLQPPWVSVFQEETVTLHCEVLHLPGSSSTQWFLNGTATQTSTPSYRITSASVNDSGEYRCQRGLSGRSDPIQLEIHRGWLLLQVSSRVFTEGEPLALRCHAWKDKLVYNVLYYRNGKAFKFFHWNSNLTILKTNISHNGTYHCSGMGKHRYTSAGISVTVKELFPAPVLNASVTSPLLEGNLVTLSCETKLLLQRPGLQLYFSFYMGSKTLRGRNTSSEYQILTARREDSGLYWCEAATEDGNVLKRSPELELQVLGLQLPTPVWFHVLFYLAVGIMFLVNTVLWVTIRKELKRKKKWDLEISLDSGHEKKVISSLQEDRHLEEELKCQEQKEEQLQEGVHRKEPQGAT

B1: mAb 3 (antibody, human IgG1, kappa)
heavy: QVQLVQSGAEVAKPGTSVKLSCKASGYTFTDYWMQWVKQRPGQGLEWIGTIYPGDGDTGYAQKFQGKATLTADKSSKTVYMHLSSLASEDSAVYYCARGDYYGSNSLDYWGQGTSVTVSSASTKGPSVFPLAPSSKSTSGGTAALGCLVKDYFPEPVTVSWNSGALTSGVHTFPAVLQSSGLYSLSSVVTVPSSSLGTQTYICNVNHKPSNTKVDKKVEPKSCDKTHTCPPCPAPELLAGPDVFLFPPKPKDTLMISRTPEVTCVVVDVSHEDPEVKFNWYVDGVEVHNAKTKPREEQYNSTYRVVSVLTVLHQDWLNGKEYKCKVSNKALPAPEEKTISKAKGQPREPQVYTLPPSRDELTKNQVSLTCLVKGFYPSDIAVEWESNGQPENNYKTTPPVLDSDGSFFLYSKLTVDKSRWQQGNVFSCSVMHEALHNHYTQKSLSLSPG
light: DIVMTQSHLSMSTSLGDPVSITCKASQDVSTVVAWYQQKPGQSPRRLIYSASYRYIGVPDRFTGSGAGTDFTFTISSVQAEDLAVYYCQQHYSPPYTFGGGTKLEIKRTVAAPSVFIFPPSDEQLKSGTASVVCLLNNFYPREAKVQWKVDNALQSGNSQESVTEQDSKDSTYSLSSTLTLSKADYEKHKVYACEVTHQGLSSPVTKSFNRGEC
notes: also called HEAVY CHAIN 3 / LIGHT CHAIN 1
fold higher affinity than mAb 1 [1]: 9 fold
Fold difference in affinity versus mAb 1 [2]: 5.2 fold
ADCC of KMS-12BM cells, EC50 (calcein release) [3]: 0.6 ng/mL
Kd [4]: 32 nM
IC50 [5]: 15 nM
fold higher affinity compared to mAb 1 [6]: > 18 fold
Kd [7]: 75 nM
Kd [8]: 222 nM
Kd [9]: 50 nM
ADCC of MOLP-8 cells, EC50 (calcein release) [10]: 0.14 ng/mL
difference in affinity versus mAb 1 [11]: 1.6 fold
difference in affinity versus mAb 1 [12]: 3.3 fold
difference in affinity versus mAb 1 [13]: 5.3 fold
Kd [14]: 14.7 nM
Kd [15]: 222 nM
ADCC of RPMI-8226 cells, EC50 (calcein release) [16]: 0.09 ng/mL
